# Source: PMC6006248, “CARK1 mediates ABA signaling by phosphorylation of ABA receptors” (Cell Discovery, 2018)
# Numbering of substitutions follows the chain as printed. Names and notes keep the numbering of the source.
# T1: RCAR11 (PYR1) with ABI1 (Arabidopsis thaliana, UniProt O49686)
# T1 construct: recombinant receptor plus ABI1 phosphatase; tags and borders for this assay only in supplement; receptor dimeric; with Protein phosphatase 2C 56
# T1 sequence (O49686 1-191): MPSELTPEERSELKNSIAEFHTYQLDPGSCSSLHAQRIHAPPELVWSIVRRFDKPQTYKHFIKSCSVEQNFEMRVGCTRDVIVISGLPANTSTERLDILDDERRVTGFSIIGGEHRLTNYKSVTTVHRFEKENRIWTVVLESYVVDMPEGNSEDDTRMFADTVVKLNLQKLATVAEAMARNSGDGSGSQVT
# T1 sequence (P49597 1-434 partner): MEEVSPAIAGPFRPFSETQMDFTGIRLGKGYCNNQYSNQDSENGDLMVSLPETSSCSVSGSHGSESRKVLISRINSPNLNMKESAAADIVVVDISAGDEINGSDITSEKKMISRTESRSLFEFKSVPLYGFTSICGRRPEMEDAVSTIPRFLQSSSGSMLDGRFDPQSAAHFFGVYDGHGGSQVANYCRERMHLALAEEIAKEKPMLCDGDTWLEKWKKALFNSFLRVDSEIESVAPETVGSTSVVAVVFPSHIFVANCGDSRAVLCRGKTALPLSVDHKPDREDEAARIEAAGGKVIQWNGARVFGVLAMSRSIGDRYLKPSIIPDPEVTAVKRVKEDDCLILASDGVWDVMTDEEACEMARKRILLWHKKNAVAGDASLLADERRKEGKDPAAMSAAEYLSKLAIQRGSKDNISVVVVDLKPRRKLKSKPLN
# T2: RCAR3 (PYL8) with ABI1 (Arabidopsis thaliana, UniProt Q9FGM1)
# T2 construct: recombinant receptor plus ABI1 phosphatase; tags and borders for this assay only in supplement; receptor monomeric; with Protein phosphatase 2C 56
# T2 sequence (Q9FGM1 1-188): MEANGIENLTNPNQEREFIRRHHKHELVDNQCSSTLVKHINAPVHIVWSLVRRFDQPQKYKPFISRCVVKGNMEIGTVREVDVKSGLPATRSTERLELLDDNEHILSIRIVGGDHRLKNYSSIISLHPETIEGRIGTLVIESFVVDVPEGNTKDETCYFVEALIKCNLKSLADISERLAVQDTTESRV
# T2 sequence (P49597 1-434 partner): T1 sequence (P49597 1-434 partner)
# T3: CARK1-KD (Arabidopsis thaliana, UniProt Q9LUT0)
# T3 construct: kinase domain, residues 50-353, 6xHis fusion (pET28a), E. coli Rosetta (DE3)
# T3 sequence (Q9LUT0 50-353): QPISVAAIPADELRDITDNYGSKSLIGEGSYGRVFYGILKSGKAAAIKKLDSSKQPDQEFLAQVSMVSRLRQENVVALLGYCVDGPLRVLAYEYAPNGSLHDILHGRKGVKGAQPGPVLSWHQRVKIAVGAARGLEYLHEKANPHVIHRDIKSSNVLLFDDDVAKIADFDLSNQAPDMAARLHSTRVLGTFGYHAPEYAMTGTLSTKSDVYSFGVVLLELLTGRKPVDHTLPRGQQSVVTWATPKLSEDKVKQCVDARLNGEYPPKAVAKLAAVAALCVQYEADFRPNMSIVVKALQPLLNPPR
# T4: RCAR3^T77A (Arabidopsis, UniProt Q9FGM1 1-188, T77A)
# T4 sequence: T2 sequence (Q9FGM1 1-188) with T77A
# T5: RCAR3^S85R (interface point mutant) (Arabidopsis, UniProt Q9FGM1 1-188, S85R)
# T5 sequence: T2 sequence (Q9FGM1 1-188) with S85R
# T6: RCAR3^T77D (phosphor-mimic form of RCAR3) (Arabidopsis, UniProt Q9FGM1 1-188, T77D)
# T6 sequence: T2 sequence (Q9FGM1 1-188) with T77D
# T7: ABI1 (Clade A PP2C) (Arabidopsis, UniProt P49597 1-434)
# T7 construct: Protein phosphatase 2C ABI1, Arabidopsis; source: purified with the similar procedures as described for CARK1-KD
# T7 sequence (looked up): T1 sequence (P49597 1-434 partner)
# T8: His-tagged CARK1-KD (kinase domain of CARK1, residues 50-353) (Arabidopsis, UniProt Q9LUT0 50-353)
# T8 construct: CARK1 (At3g17410), Arabidopsis, kinase domain, residues 50-353; Cloned into pET28a for the pull-down; details of the purification are in the Supplementary Information; source: E. coli Rosetta (DE3), purified
# T8 sequence (looked up): T3 sequence (Q9LUT0 50-353)
# B1: ABI1 (Clade A PP2C) (enzyme)
# chain: T1 sequence (P49597 1-434 partner)
# B2: wild-type RCAR3 (purified, SPR and phosphatase assay) (receptor, Arabidopsis, UniProt Q9FGM1 1-188, looked up)
# chain: T2 sequence (Q9FGM1 1-188)
# notes: ABA receptor RCAR3 (PYL8), Arabidopsis; a His-tagged RCAR3 is named for the in-gel kinase assay; also called PYL8; source: purified with the similar procedures as described for CARK1-KD
# B3: RCAR3^S85R (interface point mutant) (receptor, Arabidopsis, UniProt Q9FGM1 1-188, looked up)
# chain: T2 sequence (Q9FGM1 1-188) with S85R
# notes: ABA receptor RCAR3 (PYL8), Arabidopsis, with S85R; source: purified with the similar procedures as described for CARK1-KD
# B4: RCAR3^T77A (receptor, Arabidopsis, UniProt Q9FGM1 1-188, looked up)
# chain: T2 sequence (Q9FGM1 1-188) with T77A
# notes: ABA receptor RCAR3 (PYL8), Arabidopsis, with T77A; source: purified with the similar procedures as described for CARK1-KD
# B5: RCAR3^T77D (phosphor-mimic form of RCAR3) (receptor, Arabidopsis, UniProt Q9FGM1 1-188, looked up)
# chain: T2 sequence (Q9FGM1 1-188) with T77D
# notes: ABA receptor RCAR3 (PYL8), Arabidopsis, with T77D; source: purified with the similar procedures as described for CARK1-KD
# B6: GST-tagged RCAR3 (receptor, Arabidopsis, UniProt Q9FGM1 1-188, looked up)
# chain: T2 sequence (Q9FGM1 1-188)
# notes: ABA receptor RCAR3 (PYL8), Arabidopsis, cDNA cloned into pGEX-6P-1; Details are in the Supplementary Information; also called PYL8; source: E. coli, purified (similar procedures as for CARK1-KD)
# B7: GST-tagged RCAR11 (receptor, Arabidopsis, UniProt O49686 1-191, looked up)
# chain: T1 sequence (O49686 1-191)
# notes: ABA receptor RCAR11 (PYR1), Arabidopsis, cDNA cloned into pGEX-6P-1; Details are in the Supplementary Information; also called PYR1; source: E. coli, purified (similar procedures as for CARK1-KD)
# Legend:
# [1] = target: ABI1 (Clade A PP2C) (Arabidopsis) (UniProt P49597)
# RCAR11 (PYR1) with ABI1 = target: T1, RCAR11 (PYR1) with ABI1; test: in vitro Ser/Thr phosphatase assay of ABI1; type: biochemical; settings: read-out is receptor-dependent inhibition of ABI1
# RCAR3 (PYL8) with ABI1 = target: T2, RCAR3 (PYL8) with ABI1; test: in vitro Ser/Thr phosphatase assay of ABI1; type: biochemical; settings: read-out is receptor-dependent inhibition of ABI1
# CARK1-KD = target: T3, CARK1-KD; test: in vitro kinase assay, […] autoradiography; type: biochemical; settings: labelled compound; autophosphorylation and phosphorylation of RCAR3/RCAR11
# RCAR3^T77A = target: T4, RCAR3^T77A; test: SPR
# [2] = target: T5, RCAR3^S85R (interface point mutant); test: SPR
# [3] = target: T6, RCAR3^T77D (phosphor-mimic form of …); test: SPR
# ABI1 (Clade A PP2C) [4] = target: B1; test: SPR
# ABI1 (Clade A PP2C) [5] = target: T7, ABI1 (Clade A PP2C); test: SPR; in vitro; who was immobilised and the conditions are not told in the main text (Supplementary Fig. S7A-E); settings: both partners purified
# [6] = target: T8, His-tagged CARK1-KD (kinase domain of …); test: pull-down; GST pull-down; His-tagged CARK1-KD or CARK1-KD^N204A (50, 100 and 200 μg) incubated with 100 μg of GST-tagged RCAR3 or RCAR11; SDS-PAGE and immunoblot; settings: both partners purified
molecule,measurement,setting,value
RCAR11^T78D (phosphor-mimic form of RCAR11) (from UniProt O49686 1-191) (receptor),"phosphatase activity of ABI1 in vitro, without ABA: inhibitory effect",[1],28%
CC1=CC(=O)CC(C)(C)[C@@]1(O)/C=C/C(C)=C\C(=O)O [ABA],in vitro Ser/Thr phosphatase assay of ABI1,RCAR11 (PYR1) with ABI1,phosphatase activity of ABI1 was totally abolished by either forms of RCAR3/RCAR11
same,in vitro Ser/Thr phosphatase assay of ABI1,RCAR3 (PYL8) with ABI1,phosphatase activity of ABI1 was totally abolished by either forms of RCAR3/RCAR11
Nc1ncnc2c1ncn2[C@@H]1O[C@H](COP(=O)(O)OP(=O)(O)OP(=O)(O)O)[C@@H](O)[C@H]1O [ATP],"in vitro kinase assay, 32P autoradiography",CARK1-KD,wild-type CARK1-KD showed strong autophosphorylation activity
B1,koff,RCAR3^T77A,0.0046 s⁻¹
same,koff,[2],0.00676 s⁻¹
same,koff,[3],0.000867 s⁻¹
B2,koff,ABI1 (Clade A PP2C) [4],0.000822 s⁻¹
same,Kd,ABI1 (Clade A PP2C) [5],0.88 µM
B3,Kd,ABI1 (Clade A PP2C) [5],11.3 µM
B4,Kd,ABI1 (Clade A PP2C) [5],~6.4 µM
B5,Kd,ABI1 (Clade A PP2C) [5],~0.2 µM
B6,binding result,[6],binds
B7,binding result,[6],binds
